Results on two molecules are retold here after PMC9896810, “Crk proteins activate the Rap1 guanine nucleotide exchange factor C3G by segregated adaptor-dependent and -independent mechanisms” (Cell Communication and Signaling : CCS, 2023).

Where “and” joins values, the source holds several entries; their conditions need not be identical. Identical values can stand only once.

Experiment [1] addresses T1, Src-phosphorylated C3G-AAAP (human, UniProt Q13905-1 4-1077, P283A | P284A | L286 | P287 | P289A | P453A | P454A | L456A | P457A | K459A | …, phosphotyrosines from phosphorylation in vitro with Src (sites not given)).
T1 construct: human C3G isoform a, residues 4-1077; only P4 kept, P1, P2 and P3 mutated to Ala; also called pC3G-AAAP; source: E. coli BL21 (DE3), purified; phosphorylated in vitro with the recombinant kinase domain of Src, then SEC; not shown: His, N-terminal, cleaved; Halo, N-terminal, cleaved
T1 sequence (looked up): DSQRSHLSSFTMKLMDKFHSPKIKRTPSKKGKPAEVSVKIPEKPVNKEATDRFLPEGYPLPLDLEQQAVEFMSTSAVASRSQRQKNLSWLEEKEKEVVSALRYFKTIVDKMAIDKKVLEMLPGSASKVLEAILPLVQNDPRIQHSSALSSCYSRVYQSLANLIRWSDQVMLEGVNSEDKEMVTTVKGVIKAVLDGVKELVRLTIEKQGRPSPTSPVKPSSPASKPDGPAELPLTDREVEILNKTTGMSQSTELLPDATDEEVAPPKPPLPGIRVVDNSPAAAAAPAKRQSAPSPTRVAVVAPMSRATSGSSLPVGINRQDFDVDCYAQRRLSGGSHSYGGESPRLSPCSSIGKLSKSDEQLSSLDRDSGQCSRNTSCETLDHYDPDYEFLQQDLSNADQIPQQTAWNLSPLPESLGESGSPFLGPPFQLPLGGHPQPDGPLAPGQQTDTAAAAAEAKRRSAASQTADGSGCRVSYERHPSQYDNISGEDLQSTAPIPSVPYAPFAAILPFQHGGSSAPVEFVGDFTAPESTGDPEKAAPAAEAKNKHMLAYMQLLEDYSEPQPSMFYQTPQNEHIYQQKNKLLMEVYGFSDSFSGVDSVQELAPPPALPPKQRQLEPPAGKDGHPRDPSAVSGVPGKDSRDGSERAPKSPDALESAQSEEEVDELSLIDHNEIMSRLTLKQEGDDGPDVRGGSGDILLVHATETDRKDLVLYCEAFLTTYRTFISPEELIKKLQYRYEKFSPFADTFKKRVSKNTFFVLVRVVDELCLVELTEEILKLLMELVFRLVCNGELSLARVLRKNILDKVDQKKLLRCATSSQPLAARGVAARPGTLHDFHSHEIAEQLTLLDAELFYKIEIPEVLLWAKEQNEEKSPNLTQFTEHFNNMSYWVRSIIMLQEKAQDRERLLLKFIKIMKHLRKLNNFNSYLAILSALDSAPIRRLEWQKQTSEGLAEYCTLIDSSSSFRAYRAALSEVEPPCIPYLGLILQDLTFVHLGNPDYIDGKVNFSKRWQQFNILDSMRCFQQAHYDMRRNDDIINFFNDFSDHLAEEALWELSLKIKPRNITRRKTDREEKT
As to the kind of experiment: ITC; single-PRM mutant of C3G in the cell titrated with CrkL or CrkL-SH3N, 25 °C, 300 mM NaCl, pH 7.5; SEDPHAT, 1:1 heteroassociation model; N is the competent fraction of C3G. The note with it: both partners purified. For orientation: ITC needs no label: the signal is the heat of the interaction.

For experiment [2], the target named is T2, C3G (full-length, residues 4-1077) (human, UniProt Q13905-1 4-1077).
T2 construct: also called C3G WT; RapGEF1; source: E. coli BL21 (DE3), purified (IMAC, TEV digestion, reversed IMAC, SEC); not shown: His, N-terminal, cleaved; Halo, N-terminal, cleaved
T2 sequence (looked up): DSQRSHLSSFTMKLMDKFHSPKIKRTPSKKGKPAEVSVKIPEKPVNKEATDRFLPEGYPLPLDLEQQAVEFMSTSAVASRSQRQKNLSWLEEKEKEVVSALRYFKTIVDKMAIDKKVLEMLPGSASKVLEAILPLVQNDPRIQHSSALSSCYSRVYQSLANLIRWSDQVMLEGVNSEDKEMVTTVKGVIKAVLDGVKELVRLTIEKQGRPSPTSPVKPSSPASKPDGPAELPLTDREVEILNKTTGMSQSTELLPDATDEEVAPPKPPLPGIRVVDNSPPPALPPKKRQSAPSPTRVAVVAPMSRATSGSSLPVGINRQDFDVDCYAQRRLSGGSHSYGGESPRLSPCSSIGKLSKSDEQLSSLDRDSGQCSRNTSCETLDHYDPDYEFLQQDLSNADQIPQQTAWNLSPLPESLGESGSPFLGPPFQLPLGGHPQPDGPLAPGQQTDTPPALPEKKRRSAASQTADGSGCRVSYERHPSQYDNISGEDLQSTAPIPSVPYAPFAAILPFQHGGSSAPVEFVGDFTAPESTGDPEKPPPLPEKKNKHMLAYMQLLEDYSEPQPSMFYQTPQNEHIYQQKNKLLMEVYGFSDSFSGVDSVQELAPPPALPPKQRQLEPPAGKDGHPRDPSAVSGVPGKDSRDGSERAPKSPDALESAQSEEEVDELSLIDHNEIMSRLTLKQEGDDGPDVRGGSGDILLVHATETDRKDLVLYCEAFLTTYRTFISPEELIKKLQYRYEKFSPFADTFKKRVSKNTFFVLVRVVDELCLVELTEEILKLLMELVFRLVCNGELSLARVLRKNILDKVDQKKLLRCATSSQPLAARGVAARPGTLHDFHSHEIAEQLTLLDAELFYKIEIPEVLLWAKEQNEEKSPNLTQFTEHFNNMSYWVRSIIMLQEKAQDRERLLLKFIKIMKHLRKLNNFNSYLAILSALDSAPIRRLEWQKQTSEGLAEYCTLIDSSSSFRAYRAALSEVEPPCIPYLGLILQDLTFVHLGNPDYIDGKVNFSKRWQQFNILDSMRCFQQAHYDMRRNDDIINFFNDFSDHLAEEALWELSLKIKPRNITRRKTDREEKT
In words: ITC; C3G in the cell titrated with CrkL in the syringe, 25 °C, 300 mM NaCl, pH 7.5; each titration analysed individually with Origin ITC, independent-site model. The conditions noted are these: both partners purified.

B1: CrkL-SH3N (domain or fragment, human, UniProt P46109 125-182, looked up)
chain: LEYVRTLYDFPGNDAEDLPFKKGEILVIIEKPEEQWWSARNKDGRVGMIPVPYVEKLV
notes: human CrkL, SH3N domain, residues 125-182, in pETEV15b; source: E. coli BL21 (DE3), purified (IMAC, TEV digestion, SEC); not shown: His, N-terminal, cleaved
A word on the Kd: it is the concentration at which binding is half-saturated. High values mean lower affinity, low ones higher affinity. For orientation: stoichiometry N means a count of units in the complex or per binding partner. For B1, in experiment [1], binding was put at a Kd of 2.4 µM and the “stoichiometry N” value is 0.74.

B2: CrkL (full-length) (natural protein, human, UniProt P46109 1-303, looked up)
chain: MSSARFDSSDRSAWYMGPVSRQEAQTRLQGQRHGMFLVRDSSTCPGDYVLSVSENSRVSHYIINSLPNRRFKIGDQEFDHLPALLEFYKIHYLDTTTLIEPAPRYPSPPMGSVSAPNLPTAEDNLEYVRTLYDFPGNDAEDLPFKKGEILVIIEKPEEQWWSARNKDGRVGMIPVPYVEKLVRSSPHGKHGNRNSNSYGIPEPAHAYAQPQTTTPLPAVSGSPGAAITPLPSTQNGPVFAKAIQKRVPCAYDKTALALEVGDIVKVTRMNINGQWEGEVNGRKGLFPFTHVKIFDPQNPDENE
notes: human CrkL, residues 1-303, in pETEV15b; also called Crk-like protein; source: E. coli BL21 (DE3), purified (IMAC, TEV digestion, SEC); not shown: His, N-terminal, cleaved
As for B2, in experiment [2], the Kd worked out at 3.3 µM; the “stoichiometry N” value was 3.2 and 2.8 and 2.9.
